Experimental data as given in the supplement of paper PMC10567573.

B1: FCHSD1 (parent)
chain: LEAAEVILEHAHRGEQTTSQVSWE

Variants of: B1
Experiment: protein stability index of a GFP-peptide fusion (GPS, HEK-293T) (PSI 1-6); higher = more stable
Details: c terminus: a fixed tail appended
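Further: lentivirally expressed fusions sorted by FACS into six bins by GFP to DsRed ratio, PSI derived from sequencing read proportions per bin multiplied by bin number.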

Row | Variant | protein stability index
1 | LEAAEVILEHAARGEQTTSQVSWE [H12A] | 4.23
2 | LEAAEVILEHANRGEQTTSQVSWE [H12N] | 4.55
3 | LEAAEVILEHADRGEQTTSQVSWE [H12D] | 4.04
4 | LEAAEVILEHAERGEQTTSQVSWE [H12E] | 4.92
5 | LEAAEVILEHAFRGEQTTSQVSWE [H12F] | 2.87
6 | LEAAEVILEHAYRGEQTTSQVSWE [H12Y] | 4.09
7 | LEAAEVILEHAMRGEQTTSQVSWE [H12M] | 3.79
8 | LEAAEVILEHAPRGEQTTSQVSWE [H12P] | 4.43
9 | LEAAEVILEHAKRGEQTTSQVSWE [H12K] | 4.07
10 | LEAAEVILEHDHRGEQTTSQVSWE [A11D] | 4.97
11 | LEAAEVILEHHHRGEQTTSQVSWE [A11H] | 4.05
12 | LEAAEVILEHWHRGEQTTSQVSWE [A11W] | 3.23
13 | LEAAEVILEHLHRGEQTTSQVSWE [A11L] | 4.77
14 | LEAAEVILEHSHRGEQTTSQVSWE [A11S] | 4.12
15 | LEAAEVILEHEHRGEQTTSQVSWE [A11E] | 4.69
16 | LEAAEVILEHFHRGEQTTSQVSWE [A11F] | 3.27
17 | LEAAEVILEHIHRGEQTTSQVSWE [A11I] | 3.33
18 | LEAAEVILEHVHRGEQTTSQVSWE [A11V] | 4.54
19 | LEAAEVILEHRHRGEQTTSQVSWE [A11R] | 4.71
20 | LEAAEVILEHPHRGEQTTSQVSWE [A11P] | 5.38
21 | LEAAEVILEHMHRGEQTTSQVSWE [A11M] | 4.46
22 | LEAAEVILEHQHRGEQTTSQVSWE [A11Q] | 4.11
23 | LEAAEVILEHTHRGEQTTSQVSWE [A11T] | 3.04
24 | LEAAEVILEHGHRGEQTTSQVSWE [A11G] | 4.14

Row | Variant | protein stability index
25 | LEAAEVILEHYHRGEQTTSQVSWE [A11Y] | 3.47
26 | LEAAEVILEHNHRGEQTTSQVSWE [A11N] | 4.18
27 | LEAAEVILEHCHRGEQTTSQVSWE [A11C] | 4.14
28 | LEAAEVILEMAHRGEQTTSQVSWE [H10M] | 3.15
29 | LEAAEVILEEAHRGEQTTSQVSWE [H10E] | 5.19
30 | LEAAEVILETAHRGEQTTSQVSWE [H10T] | 4.65
31 | LEAAEVILEVAHRGEQTTSQVSWE [H10V] | 3.92
32 | LEAAEVILECAHRGEQTTSQVSWE [H10C] | 3.63
33 | LEAAEVILEGAHRGEQTTSQVSWE [H10G] | 3.87
34 | LEAAEVILEKAHRGEQTTSQVSWE [H10K] | 4.48
35 | LEAAEVILEIAHRGEQTTSQVSWE [H10I] | 2.88
36 | LEAAEVILEPAHRGEQTTSQVSWE [H10P] | 4.41
37 | LEAAEVILELAHRGEQTTSQVSWE [H10L] | 4.34
38 | LEAAEVILEYAHRGEQTTSQVSWE [H10Y] | 3.15
39 | LEAAEVILEFAHRGEQTTSQVSWE [H10F] | 3.05
40 | LEAAEVILEQAHRGEQTTSQVSWE [H10Q] | 4.88
41 | LEAAEVILENAHRGEQTTSQVSWE [H10N] | 3.78
42 | LEAAEVILESAHRGEQTTSQVSWE [H10S] | 4.41
43 | LEAAEVILEHAHLGEQTTSQVSWE [R13L] | 4.13
44 | LEAAEVILEHAHGGEQTTSQVSWE [R13G] | 5.25
45 | LEAAEVILEHAHWGEQTTSQVSWE [R13W] | 3.27
46 | LEAAEVILEHAHTGEQTTSQVSWE [R13T] | 4.58
47 | LEAAEVILEHAHDGEQTTSQVSWE [R13D] | 4.67
48 | LEAAEVILEHAHYGEQTTSQVSWE [R13Y] | 3.44

Row | Variant | protein stability index
49 | LEAAEVILEHAHMGEQTTSQVSWE [R13M] | 4.27
50 | LEAAEVILEHAHAGEQTTSQVSWE [R13A] | 4.58
51 | LEAAEVILEHAHHGEQTTSQVSWE [R13H] | 4.6
52 | LEAAEVILEHAHCGEQTTSQVSWE [R13C] | 3.5
53 | LEAAEVILEHAHIGEQTTSQVSWE [R13I] | 4.11
54 | LEAAEVILEHAHKGEQTTSQVSWE [R13K] | 4.1
55 | LEAAEVILEHAHVGEQTTSQVSWE [R13V] | 4.93
56 | LEAAEVILEHAHQGEQTTSQVSWE [R13Q] | 4.41
57 | LEAAEVILEHAHPGEQTTSQVSWE [R13P] | 4.9
58 | LEAAEVILEHAHSGEQTTSQVSWE [R13S] | 4.24
59 | LEAAEVILEHAHNGEQTTSQVSWE [R13N] | 4.63
60 | LEAAEVIEEHAHRGEQTTSQVSWE [L8E] | 5.09
61 | LEAAEVISEHAHRGEQTTSQVSWE [L8S] | 5.37
62 | LEAAEVIMEHAHRGEQTTSQVSWE [L8M] | 4.46
63 | LEAAEVIYEHAHRGEQTTSQVSWE [L8Y] | 4.42
64 | LEAAEVIREHAHRGEQTTSQVSWE [L8R] | 4.92
65 | LEAAEVIIEHAHRGEQTTSQVSWE [L8I] | 4.46
66 | LEAAEVIKEHAHRGEQTTSQVSWE [L8K] | 4.98
67 | LEAAEVIWEHAHRGEQTTSQVSWE [L8W] | 4.31
68 | LEAAEVIQEHAHRGEQTTSQVSWE [L8Q] | 5.5
69 | LEAAEVIDEHAHRGEQTTSQVSWE [L8D] | 5.35
70 | LEAAEVIFEHAHRGEQTTSQVSWE [L8F] | 4
71 | LEAAEVIAEHAHRGEQTTSQVSWE [L8A] | 4.96
72 | LEAAEVIHEHAHRGEQTTSQVSWE [L8H] | 4.74

Row | Variant | protein stability index
73 | LEAAEVITEHAHRGEQTTSQVSWE [L8T] | 5.09
74 | LEAAEVIPEHAHRGEQTTSQVSWE [L8P] | 5.65
75 | LEAAEVIGEHAHRGEQTTSQVSWE [L8G] | 5.23
76 | LEAAEVICEHAHRGEQTTSQVSWE [L8C] | 4.93
77 | LEAAEVIVEHAHRGEQTTSQVSWE [L8V] | 4.83
78 | LEAAEVILMHAHRGEQTTSQVSWE [E9M] | 2.66
79 | LEAAEVILGHAHRGEQTTSQVSWE [E9G] | 3.87
80 | LEAAEVILVHAHRGEQTTSQVSWE [E9V] | 2.5
81 | LEAAEVILQHAHRGEQTTSQVSWE [E9Q] | 3.45
82 | LEAAEVILYHAHRGEQTTSQVSWE [E9Y] | 2.33
83 | LEAAEVILRHAHRGEQTTSQVSWE [E9R] | 3.39
84 | LEAAEVILDHAHRGEQTTSQVSWE [E9D] | 4.33
85 | LEAAEVILWHAHRGEQTTSQVSWE [E9W] | 2.05
86 | LEAAEVILHHAHRGEQTTSQVSWE [E9H] | 4.18
87 | LEAAEVILNHAHRGEQTTSQVSWE [E9N] | 3.8
88 | LEAAEVILTHAHRGEQTTSQVSWE [E9T] | 3.62
89 | LEAAEVILSHAHRGEQTTSQVSWE [E9S] | 4.4
90 | LEAAEVILFHAHRGEQTTSQVSWE [E9F] | 2.54
91 | LEAAEVILIHAHRGEQTTSQVSWE [E9I] | 1.86
92 | LEAAEVILKHAHRGEQTTSQVSWE [E9K] | 4.19
93 | LEAAEVILLHAHRGEQTTSQVSWE [E9L] | 2.52
94 | LEAAEVILCHAHRGEQTTSQVSWE [E9C] | 3.04
